Reference: patent US20250289893A1 (OXFORD UNIVERSITY INNOVATION, published 2025)
Changes are numbered by the printed parent chain.

T1: CD1a[H86 A] (human, UniProt P06126 18-295, limits assumed)
T1 construct: also called point mutant CD1a[H86A]
T1 chain: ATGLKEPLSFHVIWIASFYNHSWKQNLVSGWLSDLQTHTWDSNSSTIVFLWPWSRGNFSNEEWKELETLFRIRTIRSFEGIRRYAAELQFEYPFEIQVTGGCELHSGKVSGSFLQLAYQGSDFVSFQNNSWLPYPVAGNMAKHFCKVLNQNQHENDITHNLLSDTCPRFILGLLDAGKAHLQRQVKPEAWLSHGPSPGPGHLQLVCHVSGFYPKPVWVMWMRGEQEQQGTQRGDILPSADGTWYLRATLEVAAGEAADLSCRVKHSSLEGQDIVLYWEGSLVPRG

B1: 110 (VR12112) (antibody, V domains shown)
VH: QSVEESGGRLVTPGTPLTLTCTVSGFSLSSYAMIWVRQAPGKGLEWIGIINSSDNTHYATWAKGRFTISKTSTTVDLKITSPTTEDTATYFCARDPYDYGYGWYFDLWGPGTLVTVSS
VL: AQVLTQTPSPVSAAVGGTVTINCQASQSVFNNKNLAWYQQKPGQPPKLLIYKASTLASGVSSRFKGSGSGTQFALTISGVQCDDAATYYCQGEFSCSSTDCVTFGGGTEVVVK
notes: also called OX110; antibody 110
B2: 77A (VR11851) (antibody, V domains shown)
VH: QSVEESGGRLVTPGTPLTLTCTVSGFSLSSYAMSWVRQAPGKGLEWIGIISSSGTTYYASWAKGRFTISKTSTTVDLKITSPTTEDTATYFCARVDYYSSGWGGLWGPGTLVTVSS
VL: AVEMTQTPASMSAAVGGTVTIKCQASEDIYSNLAWYQQKPGQPPKLLIYGASTLASGVPSRFKGSGSGTEYTLTISGVQCDDAATYYCQCTYDTSSYGNTFGGGTEMVVE
notes: also called OX77a; antibody 77a
B3: 111 (VR12113) (antibody, V domains shown)
VH: QSVEESGGRLVTPGTPLTLTCTASGFSLSTYAMSWVRQAPGKGLEWIGIISSSGSTYYASWAKGRFTISKTSTTVDLKITSPTTEDTATYFCARETWYWLDLWGQGTLVTVSS
VL: B2 VL with M11V, K22N, T91A, T94S, N99T, T100P, M107V, E110K
notes: also called OX111
B4: 116 (VR12117) (antibody, V domains shown)
VH: QSVEESGGRLVTPGTPLTLTCTVSGFSLSNYAMSWVRQAPGKGLEWIGIIYTTGFTYYASWVKGRFTISKTSTTVDLKITSPTTEDTATYFCARGLATYVSPPTRLDLWGQGTLVTVSS
VL: AQVLTQTPSPVSAAVGGTVTINCQASQSIYNSKNLAWYQQKPGQPPKLLIYSASTLASGVPSRFKGSGSGTQFTLTISDLECDDAATYYCQGEFSCSSVDCATFGGGTEVVVK
notes: also called OX116

target: T2, human CD1a expressed on cells (human, UniProt P06126 17-327; P61769 21-119); experiment: flow cytometry, C1R cells, 0.0316 µg/ml antibody
T2 construct: also called HEK - CD1a; C1R - CD1a

Point of comparison: B2, “Fluorescence Intensity Geomean (normalized to background)” value 17 fold over background. Against it:
- B1 — higher, 17.1 fold over background
- B3 — higher, 26 fold over background
- B4 — higher, 24.1 fold over background

Target: T1, CD1a[H86 A]
Experiment: epitope mapping experiments (not described)

B1: no binding.

target: Cynomolgus monkey CD1a expressed on HEK-293 cells (Cynomolgus monkey, UniProt A0A2K5VQ68 17-326); experiment: flow cytometry, HEK-293 cells, 0.01 µg/ml antibody
Sequence (A0A2K5VQ68 entry or part of it): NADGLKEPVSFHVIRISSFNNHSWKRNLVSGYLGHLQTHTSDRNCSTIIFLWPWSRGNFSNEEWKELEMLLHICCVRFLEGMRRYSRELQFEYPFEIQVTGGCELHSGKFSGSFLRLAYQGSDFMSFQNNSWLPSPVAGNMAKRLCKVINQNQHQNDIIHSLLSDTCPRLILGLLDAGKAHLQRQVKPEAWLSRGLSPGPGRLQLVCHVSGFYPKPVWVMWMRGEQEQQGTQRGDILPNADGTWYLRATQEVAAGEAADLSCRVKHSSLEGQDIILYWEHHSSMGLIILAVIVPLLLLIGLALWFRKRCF

Point of comparison: B3, “Fluorescence Intensity Geomean (normalized to background)” value 8.9 fold over background. Against it:
- B1 — lower, 1.2 fold over background
- B2 — lower, 1.7 fold over background
- B4 — lower, 1 fold over background
